From patent US20040265325A1 come the findings set out here.

“And” between values parts separate entries of the source, which are not always exact repeats. Equal values may be shown once.

The experiment deals with CD8+ T cells (T cell receptors) of CMV-seropositive human donors. Nature of the experiment: flow cytometry, tetramer staining of CD8+ cells; background that was subtracted. Background: A flow cytometer gives signals particle by particle.

In the case of “HIV pol464-472 control tetramer (from UniProt P61769 21-119) (peptide-MHC)”, the CD8+ binding percentages to control tetramer is 0.07% and 0.1%.
